B1: library; numbered along this chain (parent)
chain: MRKPRAAVGSGHRKQAASQEGRQKHAKNNSQAKPSACDGLARQPEEVVLQASVSSYHLFRDVAEVTAFRGSLLSWYDQEKRDLPWRRRAEDEMDLDRRAYAVWVSEVMLQQTQVATVINYYTGWMQKWPTLQDLASASLEEVNQLWAGLGYYSRGRRLQEGARKVVEELGGHMPRTAETLQQLLPGVGRYTAGAIASIAFGQATGVVDGNVARVLCRVRAIGADPSSTLVSQQLWGLAQQLVDPARPGDFNQAAMELGATVCTPQRPLCSQCPVESLCRARQRVEQEQLLASGSLSGSPDVEECAPNTGQCHLCLPPSEPWDQTLGVVNFPRKASRKPPREESSATCVLEQPGALGAQILLVQRPNSGLLAGLWEFPSVTWEPSEQLQRKALLQELQRWAGPLPATHLRHLGEVVHTFSHIKLTYQVYGLALEGQTPVTTVPPGARWLTQEEFHTAAVSTAMKKVFRVYQGQQPGTCMGSKRSQVSSPCSRKKPRMGQQVLDNFFRSHISTDAHSLNSAAQ

Variants of: B1
Assay: 8OG:A repair function score (normalized; synonymous = 0, nonsense = -1) (normalized log-likelihood score); higher = more repair activity (WT-like)
Details: with 8OG:A DNA repair reporter (GFP) in HEK-293 MUTYH KO cells
Summary of the method: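 After 72 h, viable mCherry+ cells were split into GFP+ (repair) and GFP− bins in three replicates per tile. These cells were MUTYH knockout HEK-293 cells holding lentiviral MUTYH cDNA NNN codon-scan libraries, kept in 10 pg/ml doxycycline and co-transfected with mCherry plus an 8OG:A GFP repair reporter. Sequencing of tile amplicons gave per-tile Rosace fitness scores, normalized into a repair function score anchored on synonymous and nonsense distributions. Synonymous medians were fixed at 0, nonsense at -1, and variants under 300 counts per million at the start were removed.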
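Further: cells sorted at 72 h after reporter transfection.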

Variant | 8OG:A repair function score
L387E | -0.0756
L387T | 0.0729
L392A | -0.807
S335E | -0.0481
S335P | -0.028
Y120Q | -0.154
C262Q | -1.27
Q288A | 0.00699
Q288M | -0.03
Q288H | 0.00465
Q288N | 0.0202
F505D | 0.0229
G258K | -1.14
V327L | -0.388
Y425G | -0.907
R88F | -0.00866
P44S | -0.107
P44W | -0.102
P44V | -0.0774
S510T | 0.00117
L139Y | -0.0177

Variant | 8OG:A repair function score
M462N | -0.31
C278F | -1.07
N251E | -1.02
L158K | -1.19
A51I | -0.041
E433Q | 0.165
E160V | -0.00913
E160L | -0.0898
V362N | -0.669
V362H | -0.608
E341T | 0.0246
G475A | 0.000317
A291F | -0.0509
A291M | -0.0586
L411H | 0.0947
E168C | 0.0112
G123I | 0.0985
G161R | -1.15
L360E | -1.15
V427T | -0.409
T179N | -0.0369

Variant | 8OG:A repair function score
A259C | -0.242
A259L | -0.889
V415R | 0.157
Q265V | -0.0775
L369C | -0.0782
T260L | -0.00446
R217E | -1.03
L83W | -0.827
L109E | -1.07
L109I | -1.04
E382K | -0.213
L295C | -0.0222
A212R | 0.0203
G222D | -0.733
F330V | -0.145
V500N | -0.0108
A254G | -0.374
G148I | -1.27
E375C | -0.342
Q388H | -0.356
P264I | -0.1

Variant | 8OG:A repair function score
S294F | -0.0489
Y100N | -1.17
Y100T | -1.56
Y100R | -1.63
G209S | 0.0281
S227W | -0.244
V465C | 0.0124
A220W | -0.836
W85K | -3
P437D | -0.128
P437L | -0.197
V48Q | 0.0497
L183M | -0.13
S298T | 0.00821
Q239W | -0.74
Q43Y | -0.0469
Q358E | -0.0404
P404H | 0.138
P404M | 0.184
T263H | -0.124
M255V | -0.846

Reference: the supplement of paper PMC11908140
